Data taken from IntAct's records for PubMed 20708156.

B1: F-box/WD repeat-containing protein 1A (Homo sapiens), Q9Y297 (parent)
chain: MDPAEAVLQEKALKFMCSMPRSLWLGCSSLADSMPSLRCLYNPGTGALTAFQNSSEREDCNNGEPPRKIIPEKNSLRQTYNSCARLCLNQETVCLASTAMKTENCVAKTKLANGTSSMIVPKQRKLSASYEKEKELCVKYFEQWSESDQVEFVEHLISQMCHYQHGHINSYLKPMLQRDFITALPARGLDHIAENILSYLDAKSLCAAELVCKEWYRVTSDGMLWKKLIERMVRTDSLWRGLAERRGWGQYLFKNKPPDGNAPPNSFYRALYPKIIQDIETIESNWRCGRHSLQRIHCRSETSKGVYCLQYDDQKIVSGLRDNTIKIWDKNTLECKRILTGHTGSVLCLQYDERVIITGSSDSTVRVWDVNTGEMLNTLIHHCEAVLHLRFNNGMMVTCSKDRSIAVWDMASPTDITLRRVLVGHRAAVNVVDFDDKYIVSASGDRTIKVWNTSTCEFVRTLNGHKRGIACLQYRDRLVVSGSSDNTIRLWDIECGACLRVLEGHEELVRCIRFDNKRIVSGAYDGKIKVWDLVAALDPRAPAGTLCLRTLVEHSGRVFRLQFDEFQIVSSSHDDTILIWDFLNDPAAQAEPPRSPSRTYTYISR

Variants of: B1
Conditions: with mdm2_human MDM2, Q00987
mdm2_human MDM2, Q00987, sequence (Q00987 whole entry, looked up): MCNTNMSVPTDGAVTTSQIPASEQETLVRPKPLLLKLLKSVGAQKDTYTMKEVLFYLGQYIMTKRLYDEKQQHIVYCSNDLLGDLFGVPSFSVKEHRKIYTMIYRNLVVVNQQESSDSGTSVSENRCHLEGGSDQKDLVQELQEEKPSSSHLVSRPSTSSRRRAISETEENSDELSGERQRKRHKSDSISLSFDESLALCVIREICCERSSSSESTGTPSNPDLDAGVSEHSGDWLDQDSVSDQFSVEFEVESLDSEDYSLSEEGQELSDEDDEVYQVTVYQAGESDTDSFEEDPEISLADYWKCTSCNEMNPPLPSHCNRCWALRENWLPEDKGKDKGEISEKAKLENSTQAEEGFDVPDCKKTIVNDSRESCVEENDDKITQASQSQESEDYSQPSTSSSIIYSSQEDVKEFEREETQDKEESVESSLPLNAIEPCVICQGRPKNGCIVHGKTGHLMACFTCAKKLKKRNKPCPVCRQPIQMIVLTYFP

effect of a mutation on the interaction | Variant
decreasing interaction | R475A
